In patent publication US20190077867A1 (REYOUNG SUZHOU BIOLOGY SCIENCE AND TECHNOLOGY, published 2019):
Blank lines part the entries; values can stand above or below the binder they belong to.

How the values were obtained:
[1] = molecular target: T1, recombinant human PD-L1 fusion protein (human, UniProt Q9NZQ7 19-238); assay: ELISA, recombinant human PD-L1 fusion protein coated, antibody after 7 days in monkey serum at 37 °C, goat anti-human FAB-HRP, OD450
T1 construct: This may be the same reagent as hPD-L1-Fc
T1 sequence (Q9NZQ7 19-238): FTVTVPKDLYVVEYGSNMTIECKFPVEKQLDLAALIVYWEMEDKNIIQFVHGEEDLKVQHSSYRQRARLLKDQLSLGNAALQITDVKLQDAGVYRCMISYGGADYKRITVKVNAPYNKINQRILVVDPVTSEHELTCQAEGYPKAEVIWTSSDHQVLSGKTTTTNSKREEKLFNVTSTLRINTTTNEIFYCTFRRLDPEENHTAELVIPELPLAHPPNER
Experimental: (§1) The recombinant human PD-L1 fusion protein is stored at the concentration of 0.5 μg/mL at 4° C. overnight in enveloping buffer. Remove the solution in wells the next day and wash with PBST for twice. Then add 1% BSA, seal at 37° C. for 1 hour, then wash with PBST for twice. The stable antibody samples are diluted three folds starting from 1 μg/mL for 8 concentration gradients, incubated at 37° C. for 1 hour, and washed with PBST for three times. Dilute with goat anti-human FAB-HRP at ratio of 1:10000, incubate for 1 hour at 37 C, and wash with PBST for three times. Add TMB for 15 min coloration, stop the reaction with 0.5M H₂SO₄ and read out the absorbance at 450 nm.

[2] = molecular target: T2, recombinant human PD-L1 expressed on the surface of CHO cells (human, UniProt Q9NZQ7 19-290); assay: cell ELISA on CHO cells expressing human PD-L1, anti-human-Eu fluorescence
T2 construct: whole, on cells; also called CHO cells transfected by PD-L1; CHO cells with PD-L1 expressed on the surface
T2 sequence (Q9NZQ7 19-290): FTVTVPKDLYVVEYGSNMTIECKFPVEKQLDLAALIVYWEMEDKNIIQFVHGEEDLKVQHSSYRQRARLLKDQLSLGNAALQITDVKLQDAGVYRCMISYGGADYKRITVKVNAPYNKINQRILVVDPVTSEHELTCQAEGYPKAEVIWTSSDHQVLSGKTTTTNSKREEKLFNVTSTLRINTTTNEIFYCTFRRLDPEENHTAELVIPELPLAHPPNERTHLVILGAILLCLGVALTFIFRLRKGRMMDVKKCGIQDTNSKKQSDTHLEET
Experimental: A Chinese hamster ovary (CHO) cell line expressing recombinant human PD-L1 on cell surface is constructed and its binding specificity to humanized antibody anti-PD-L1-1 is determined by ELISA assay. The cells are overlaid on PD-L1 the day before the test, and 1/200 cells are filled with T75 bottles on each well. Then add 1% BSA and seal at 37° C. for 1 hour. The antibody is diluted three folds starting from 5 μg/mL for 8 concentration gradients, incubated at 25° C. for 1 hour, and washed with PBST for one time. The volume of 50 ng/mL anti-human-Eu added to each well is 100 μL, with reaction time of 0.5 hours at 25° C., and washing with PBS for one time. Add fluorescence enhancement liquid and read values at exciting light 337 nm/emitted light 620 nm.

[3] = molecular target: T1, recombinant human PD-L1 fusion protein; assay: competition ELISA on coated recombinant human PD-L1 fusion protein, PD1-Fc-Biotin as competitor, streptavidin-HRP
Experimental: The recombinant human PD-L1 fusion protein of 0.5 μg/mL is stored at 4° C. overnight in enveloping buffer. Remove the solution in wells the next day and wash with PBST for twice. Then add 1% BSA, seal at 37° C. for 1 hour, then wash with PBST for twice. The antibody is diluted 2.5 folds starting from 10 μg/mL for 8 concentration gradients, mixed with same volume of 1 μg/mL PD1-Fc-Biotin, incubated at 25° C. for 1 hour, and washed with PBST for one time. Incubate with goat streptavidin-HRP at ratio of 1:10000 for 1 hour at 37 C, and wash with PBST for three times. Add TMB for 15 min coloration, stop the reaction with 0.5M H₂SO₄ and read out the absorbance at 450 nm.

[4] = molecular target: T1, recombinant human PD-L1 fusion protein; assay: ELISA, recombinant human PD-L1 fusion protein coated, antibody after 0 days in monkey serum at 37 °C, goat anti-human FAB-HRP, OD450
Experimental: as §1

[5] = molecular target: T1, recombinant human PD-L1 fusion protein; assay: ELISA, recombinant human PD-L1 fusion protein coated, antibody after 1 day in monkey serum at 37 °C, goat anti-human FAB-HRP, OD450
Experimental: as §1

B7-1 = molecular target: T3, B7-1 (Homo sapiens (Human), UniProt P33681 35-242); assay: ELISA on coated protein, goat anti-human FAB-HRP, OD450
T3 construct: probably human
T3 sequence: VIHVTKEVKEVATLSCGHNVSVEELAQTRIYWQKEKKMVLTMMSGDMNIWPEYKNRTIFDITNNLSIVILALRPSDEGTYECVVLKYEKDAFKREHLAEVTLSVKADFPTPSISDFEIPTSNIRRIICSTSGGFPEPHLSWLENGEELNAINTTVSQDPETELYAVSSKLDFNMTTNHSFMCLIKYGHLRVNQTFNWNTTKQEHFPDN
Experimental: The binding of B7 family members B7-1, B7-2 to PD-L2 protein, and the binding of mouse, M. fascicularis and human PD-L1 protein to humanized antibody anti-PD-L1-1 are tested. Different proteins are stored at […] in enveloping buffer at 4° C. overnight. Remove the solution in wells the next day and wash with PBST for twice. Then add 1% BSA, seal at 37° C. for 1 hour, then wash with PBST for twice. Add 0.5 μg/mL antibody samples, incubate for 1 hour, and wash with PBST for three times. Dilute with goat anti-human FAB-HRP at ratio of 1:10000, incubate for 1 hour at 37 C, and wash with PBST for three times. Add TMB for 15 min coloration, stop the reaction with 0.5M H₂SO₄ and read out the absorbance at 450 nm.

[6] = molecular target: T1, recombinant human PD-L1 fusion protein; assay: ELISA on coated recombinant human PD-L1 fusion protein, goat anti-human FAB-HRP
Experimental: The recombinant human PD-L1 fusion protein of 0.5 μg/mL is stored at 4° C. overnight in enveloping buffer. Remove the solution in wells the next day and wash with PBST for twice. Then add 1% BSA and seal at 37° C. for 1 hour. Wash with PBST for twice. The antibody is diluted three folds starting from 5 μg/mL for 8 concentration gradients, incubated at 25° C. for 1 hour, and washed with PBST for three time. Dilute with goat anti-human FAB-HRP at ratio of 1:10000, incubate for 1 hour at 37 C, and wash with PBST for three times. Add TMB for 15 min coloration, stop the reaction with 0.5M H₂SO₄ and read out the absorbance at 450 nm.

[7] = molecular target: T1, recombinant human PD-L1 fusion protein; assay: ELISA, recombinant human PD-L1 fusion protein coated, antibody after 4 days in monkey serum at 37 °C, goat anti-human FAB-HRP, OD450
Experimental: as §1

[8] = molecular target: T4, hPD-L1 on hPD-L1-Fc over-expressed cells (human, UniProt Q9NZQ7 19-290); assay: cell binding on hPD-L1-Fc over-expressed cells, anti-mouse-EU fluorescence
T4 construct: whole, on cells; also called over-expressed hPD-L1-Fc cells
T4 sequence (Q9NZQ7 19-290): as the sequence (Q9NZQ7 19-290) above
Text: C. Cell Binding Activity [0088] Lay hPD-L1-Fc over-expressed cells on the cell plate for culture inspection one day ahead of schedule. After closure on the next day, add gradient-diluted antibody, then anti-mouse-EU. And then obtain the readings.

hPD-L1-Fc [9] = molecular target: T5, hPD-L1-Fc (human, UniProt Q9NZQ7 19-238, limits assumed); assay: competition ELISA: antibody pre-incubated with hPD-L1-Fc-Biotin, added to a plate printed as coated with hPD-L1-Fc, SA-HRP
T5 construct: Plate-coated antigen in the Embodiment 1 ELISAs
T5 sequence (Q9NZQ7 19-238 limits assumed): as the sequence (Q9NZQ7 19-238) above
Experimental: B. ELISA Inhibitory Activity [0086] Incubate the gradient diluted antibody and a certain concentration of hPD-L1-Fc-Biotin, then add the mixture to the plate enveloped with hPD-L1-Fc. Add SA-HRP to the plate after incubating and washing. Then perform coloration. Draw up the reaction curve by fitting of readings (see FIG. 2 for results) to calculate the IC50 value.

[10] = molecular target: T4, hPD-L1 on hPD-L1-Fc over-expressed cells; assay: cell inhibition assay: cells printed as PD1-27 (PD1 over-expressed CHO-K1), antibody, PD1-Fc-Biotin as competitor, Europium-labeled streptavidin
Text: D. Cell Inhibitory Activity [0090] Lay PD1-27 (PD1 over-expressed CHO-K1 stable transfected cells) on the cell plate for culture inspection one day ahead of schedule. After closure on the next day, add gradient-diluted antibody, then PD1-Fc-Biotin, then Europium-labeled streptavidin, and obtain the readings.

hPD-L1-Fc [11] = molecular target: T5, hPD-L1-Fc; assay: ELISA on coated hPD-L1-Fc, goat anti-mouse-HRP
Experimental: A. ELISA Binding Activity [0084] Envelop hPD-L1-Fc on the plate, add gradient diluted antibody, incubate and wash it, and then add goat anti-mouse-HRP, perform coloration, and draw up the reaction curve by fitting of readings (the results as shown in FIG. 1) to calculate the EC50 value.

EC50 (read off the curve) [1]: ~0.04 µg/mL
EC50 [2]: 0.0935 µg/mL
IC50 [3]: 0.0432 µg/mL
EC50 (read off the curve) [4]: ~0.04 µg/mL
EC50 (read off the curve) [5]: ~0.04 µg/mL
binding result (B7-1): no binding (tested: 0.5 µg/mL antibody)
EC50 [6]: 0.0195 µg/mL
EC50 (read off the curve) [7]: ~0.04 µg/mL
B1: humanized antibody anti-PD-L1-1 (antibody, V domains shown)
VH: EVQLVQSGAEVKKPGASVKVSCKASGYTFTKYIIHWVRQAPGQGLEWMGWFYPGSGNIRYNEKIKGRVTMTRDTSTSTVYMELSSLRSEDTAVYYCARHGELGGGYFFDYWGQGTTVTVSS
VL: DIQLTQSPSFLSASVGDRVTITCRASSSVSNIHWYQQKPGKAPKPWIYATSNLASGVPSRFSGSGSGTEFTLTISSLQPEDFATYYCQQWSSNPLTFGQGTKLEIKR
notes: Expressed in CHO-KSM4 cells; also called humanized PD-L1 antibody

EC50 [8]: 0.0303 µg/mL
IC50 (hPD-L1-Fc [9]): 860 pM
IC50 [10]: 0.638 µg/mL
EC50 (hPD-L1-Fc [11]): 0.00167 µg/mL
B2: mouse anti-PD-L1 (antibody, V domains shown)
VH: KVQLQQSGAELVKPGASVKLSCKASGYTFTKYIIHWIKQRSGQGLEWIGWFYPGSGNIRYNEKIKGKATLTADKSSSTVYMELSGLTSEDSAVYFCARHGELGGGYFFDYWGQGTTLTVSS
VL: QIVLSQSPTILSASPGEKVTMTCRASSSVSNIHWYQQKTGSSPKPWIYATSNLASGAPVRFSGSGSGTSYSLTISRVEAEDAATYYCQQWSSNPLTFGPGTKLELKR
notes: also called mouse PD-L1 antibody; mouse anti-PD-L1 monoclonal antibody
